Experimental findings from patent US20190330310A1 (VIB VZW, published 2019) are described below.

First the molecules themselves.
T1: unfused gp130 receptor fragment (pMG1) (human, UniProt P40189 760-918)
T1 construct: Negative control prey; also called empty prey
T1 sequence: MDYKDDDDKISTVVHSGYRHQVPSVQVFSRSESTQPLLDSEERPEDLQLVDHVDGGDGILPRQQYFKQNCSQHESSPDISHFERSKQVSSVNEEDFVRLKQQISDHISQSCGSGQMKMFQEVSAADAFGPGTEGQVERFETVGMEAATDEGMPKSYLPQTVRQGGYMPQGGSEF

B1: flag tag-ERN1-gp130 (other)
chain: IFGSTSTVTLPETLLFVSTLDGSLHAVSKRTGSIKWTLKEDPVLQVPTHVEEPAFLPDPNDGSLYTLGSKNNEGLTKLPFTIPELVQASPCRSSDGILYMGKKQDIWYVIDLLTGEKQQTLSSAFADSLCPSTSLLYLGRTEYTITMYDTKTRELRWNATYFDYAASLPEDDVDYKMSHFVSNGDGLVVTVDSESGDVLWIQNYASPVVAFYVWQREGLRKVMHINVAVETLRYLTFMSGEVGRITKWKYPFPKETEAKSKLTPTLYVGKYSTSLYASPSMVHEGVAVVPRGSTLPLLEGPQTDGVTIGDKGECVITPSTDVKFDPGLKSKNKLNYLRNYWLLIGHHETPLSASTKMLERFPNNLPKHRENVIPADSEKKSFEEVINLVDQTSENAPTTVSRDVEEKPAHAPARPEAPVDSMLKDMATIILSTFLLIGWVAFIITYPLSMHQQQQLQHQQFQKELEKIQLLQQQQQQLPFHPPGDTAQDGELLDTSGPYSESSGTSSPSTSPRASNHSLCSGSSASKAGSSPSLEQDDGDEETSVVIVGKISFCPKDVLGHGAEGTIVYRGMFDNRDVAVKRILPECFSFADREVQLLRESDEHPNVIRYFCTEKDRQFQYIAIELCAATLQEYVEQKDFAHLGLEPITLLQQTTSGLAHLHSLNIVHRDLKPHNILISMPNAHGKIKAMISDFGLCKKLAVGRHSFSRRSGVPGTEGWIAPEMLSEDCKENPTYTVDIFSAGCVFYYVISEGSHPFGKSLQRQANILLGACSLDCLHPEKHEDVIARELIEKMIAMDPQKRPSAKHVLKHPFFWSLEKQLQFFQDVSDRIEKESLDGPIVKQLERGGRAVVKMDWRENITVPLQTDLRKFRTYKGGSVRDLLRAMRNKKHHYRELPAEVRETLGSLPDDFVCYFTSRFPHLLAHTYRAMELCSHERLFQPYYFHEPPEPQPPVTPDALSRGSGGSGGSTVVHSGYRHQVPSVQVFSRSESTQPLLDSEERPEDLQLVDHVDGGDGILPRQQYFKQNCSQHESSPDISHFERSKQVSSVNEEDFVRLKQQISDHISQSCGSGQMKMFQEVSAADAFGPGTEGQVERFETVGMEAATDEGMPKSYLPQTVRQGGYMPQGGSELSTSLYKKAGYLPQTVRQGGYMPQ
notes: Fusion protein expressed in transfected HEK293-T cells; also called ERN1-gp130 fusion construct; pMG2C-ERN1
B2: flag-tag-ERN1cyt-gp130 (other)
chain: MDYKDDDDKISEFFCPKDVLGHGAEGTIVYRGMFDNRDVAVKRILPECFSFADREVQLLRESDEHPNVIRYFCTEKDRQFQYIAIELCAATLQEYVEQKDFAHLGLEPITLLQQTTSGLAHLHSLNIVHRDLKPHNILISMPNAHGKIKAMISDFGLCKKLAVGRHSFSRRSGVPGTEGWIAPEMLSEDCKENPTYTVDIFSAGCVFYYVISEGSHPFGKSLQRQANILLGACSLDCLHPEKHEDVIARELIEKMIAMDPQKRPSAKHVLKHPFFWSLEKQLQFFQDVSDRIEKESLDGPIVKQLERGGRAVVKMDWRENITVPLQTDLRKFRTYKGGSVRDLLRAMRNKKHHYRELPAEVRETLGSLPDDFVCYFTSRFPHLLAHTYRAMELCSHERLFQPYYFHEPPEPQPPVTPDALPSRGSGGSGGSTVVHSGYRHQVPSVQVFSRSESTQPLLDSEERPEDLQLVDHVDGGDGILPRQQYFKQNCSQHESSPDISHFERSKQVSSVNEEDFVRLKQQISDHISQSCGSGQMKMFQEVSAADAFGPGTEGQVERFETVGMEAATDEGMPKSYLPQTVRQGGYMPQGGSELSTSLYKKAGYLPQTVRQGGYMPQ
notes: also called pMG2C-ERN1cyt; gp130 fusion containing only the cytoplasmic portion of ERN1
B3: flag tag-gp130-VAMP1 (other)
chain: MDYKDDDDKISTVVHSGYRHQVPSVQVFSRSESTQPLLDSEERPEDLQLVDHVDGGDGILPRQQYFKQNCSQHESSPDISHFERSKQVSSVNEEDFVRLKQQISDHISQSCGSGQMKMFQEVSAADAFGPGTEGQVERFETVGMEAATDEGMPKSYLPQTVRQGGYMPQGGSELSTSLYKKVGMSAPAQPPAEGTEGTAPGGGPPGPPPNMTSNRRLQQTQAQVEEVVDIIRVNVDKVLERDQKLSELDDRADALQAGASQFESSAAKLKRKYWWKNCKMMIMLGAICAIIVVVIVSKYRCPTFLYKVV
notes: also called pMG1-VAMP1; VAMP1 gp130 fusion construct
B4: ERN1-Tyk2(C)-HA (other)
chain: IFGSTSTVTLPETLLFVSTLDGSLHAVSKRTGSIKWTLKEDPVLQVPTHVEEPAFLPDPNDGSLYTLGSKNNEGLTKLPFTIPELVQASPCRSSDGILYMGKKQDIWYVIDLLTGEKQQTLSSAFADSLCPSTSLLYLGRTEYTITMYDTKTRELRWNATYFDYAASLPEDDVDYKMSHFVSNGDGLVVTVDSESGDVLWIQNYASPVVAFYVWQREGLRKVMHINVAVETLRYLTFMSGEVGRITKWKYPFPKETEAKSKLTPTLYVGKYSTSLYASPSMVHEGVAVVPRGSTLPLLEGPQTDGVTIGDKGECVITPSTDVKFDPGLKSKNKLNYLRNYWLLIGHHETPLSASTKMLERFPNNLPKHRENVIPADSEKKSFEEVINLVDQTSENAPTTVSRDVEEKPAHAPARPEAPVDSMLKDMATIILSTFLLIGWVAFIITYPLSMHQQQQLQHQQFQKELEKIQLLQQQQQQLPFHPPGDTAQDGELLDTSGPYSESSGTSSPSTSPRASNHSLCSGSSASKAGSSPSLEQDDGDEETSVVIVGKISFCPKDVLGHGAEGTIVYRGMFDNRDVAVKRILPECFSFADREVQLLRESDEHPNVIRYFCTEKDRQFQYIAIELCAATLQEYVEQKDFAHLGLEPITLLQQTTSGLAHLHSLNIVHRDLKPHNILISMPNAHGKIKAMISDFGLCKKLAVGRHSFSRRSGVPGTEGWIAPEMLSEDCKENPTYTVDIFSAGCVFYYVISEGSHPFGKSLQRQANILLGACSLDCLHPEKHEDVIARELIEKMIAMDPQKRPSAKHVLKHPFFWSLEKQLQFFQDVSDRIEKESLDGPIVKQLERGGRAVVKMDWRENITVPLQTDLRKFRTYKGGSVRDLLRAMRNKKHHYRELPAEVRETLGSLPDDFVCYFTSRFPHLLAHTYRAMELCSHERLFQPYYFHEPPEPQPPVTPDALAAAGGSITQLSHLGQGTRTNVYEGRLRVEGSGDPEEGKMDDEDPLVPGRDRGQELRVVLKVLDPSHHDIALAFYETASLMSQVSHTHLAFVHGVCVRGPENSMVTEYVEHGPLDVWLRRERGHVPMAWKMVVAQQLASALSYLENKNLVHGNVCGRNILLARLGLAEGTSPFIKLSDPGVGLGALSREERVERIPWLAPECLPGGANSLSTAMDKWGFGATLLEICFDGEAPLQSRSPSEKEHFYQRQHRLPEPSCPQLATLTSQCLTYEPTQRPSFRTILRDLTRVQPHNLADVLTVNRDSPAVGPTTFHKRYLKKIRDLGEGHFGKVSLYCYDPTNDGTGEMVAVKALKADCGPQHRSGWKQEIDILRTLYHEHIIKYKGCCEDQGEKSLQLVMEYVPLGSLRDYLPRHSIGLAQLLLFAQQICEGMAYLHAHDYIHRDLAARNVLLDNDRLVKIGDFGLAKAVPEGHEYYRVREDGDSPVFWYAPECLKEYKFYYASDVWSFGVTLYELLTHCDSSQSPPTKFLELIGIAQGQMTVLRLTELLERGERLPRPDKCPCEVYHLMKNCWETEASFRPTFENLIPILKTVHEKYQGQAPSVFSVCLEYPYDVPDYA
notes: Fusion protein expressed in transfected HEK293-T cells; also called ERN1-Tyk2-HA; ERN1-Tyk2(C) fusion construct

Test [1] addresses T2, ERN1(K599A)-Tyk2(C)-HA (human).
T2 construct: also called pcDNA5/FRT/TO-ERN1(K599A)-Tyk2(C)-HA
Put plainly: luciferase reporter interaction assay in HEK293-T cells, vehicle or 1 µg/ml tunicamycin.
Protocol: (§1) After transfection, cells were either vehicle (DMSO) treated or treated with 1 μg/ml tunicamycin (final concentration).

The target of test [2] is T3, ERN1(D123P)-Tyk2(C)-HA (human).
T3 construct: Mutation in the luminal domain of ERN1; also called pcDNA5/FRT/TO-ERN1(D123P)-Tyk2(C)-HA; ERN1(D123P)-Tyk2(K)-HA
Described as above.
Protocol: as §1

Test [3] concerns the target B4. Put plainly: luciferase reporter interaction assay in HEK293-T cells, tunicamycin 0-0.04-0.2-1-5 µg/ml.
Protocol: After transfection, cells were treated with 0-0.04-0.2-1-5 μg/ml tunicamycin, final concentration. The luciferase data are presented as fold induction relative to the signal obtained in cells transfected with unfused gp130 (empty prey; transfection a) and treated with the same concentration tunicamycin. Expression of the different fusion proteins was confirmed using Western blot.
Test [4] deals with T4, HA-Tyk2(C)-SERT (human).
T4 construct: Fusion protein expressed in transfected HEK293-T cells; also called pSVSport-HA-Tyk2(C)-SERT; SERT kinase fusion construct
Put plainly: luciferase reporter interaction assay in HEK293-T cells. In general terms: Reporter assays use an easily measured gene product as a stand-in for the process of interest.

Test [5] concerns the target T5, HA-Tyk2(C)-RTp66 (HIV-1).
T5 construct: also called pSVSport-HA-Tyk2(C)-RTp66; RTp66 kinase fusion construct
Described as above.

In test [6] the target is T1, unfused gp130 receptor fragment (pMG1). Put plainly: luciferase reporter interaction assay in HEK293-T cells, tunicamycin 0-0.5-1-2 µg/ml.
Protocol: In a first experiment, cells were transfected with the following combinations of plasmids (500 ng of the kinase fusion construct, 100 ng of the gp130 fusion construct and 50 ng of the luciferase reporter construct) according to the methods described above:
After transfection, cells were treated with 0-0.5-1-2 μg/ml tunicamycin, final concentration.

On to B1, for which the binding result in test [1] and in test [2] was “no binding” throughout.

As to B2, in test [3], the binding result was “no binding”.

For the molecule B3, the figures for the binding result in test [4] and in test [5] were “binds” and “no binding”, respectively.

Turning to B4, the binding result in test [6] was “no binding”.
